Assay results as given in the Human Domainome abundance scans (Beltran et al. 2025).
± gives the uncertainty stated by the source.

B1: Dynamin-binding protein, residues 242 to 304; numbered along this chain, Q6XZF7 (parent)
chain: EEPGTYGVALYRFQALEPNELDFEVGDKIRILATLEDGWLEGSLKGRTGIFPYRFVKLCPDTR

Variants of: B1
Test: abundance fitness (aPCA) (normalised: wild type 0, dead -1); higher = more abundant; growth selection in yeast, the domain comes from the species named
Conditions: Homo sapiens

Variant	abundance fitness
EEPGTYGVALYRFQALEPNELDFEVGDKIMILATLEDGWLEGSLKGRTGIFPYRFVKLCPDTR [R30M]	-0.651 ± 0.23
EEPGTYGVALYRFQALEPNELDFEVGDKIRILATLEDGWKEGSLKGRTGIFPYRFVKLCPDTR [L40K]	-1.11 ± 0.4
EEPGTYGVALYRFQALEPNELDFEVGDKIRILATLEMGWLEGSLKGRTGIFPYRFVKLCPDTR [D37M]	-1.02 ± 0.34
EEPGTYGVALYRFQALEPNELDFEVGDKIRILATLEDGWLEHSLKGRTGIFPYRFVKLCPDTR [G42H]	-0.282 ± 0.096
EEPGTYGVALYRFQALEPNELDFEVGDKIRILATLEDGWLEGSLKGRTGIFPYRCVKLCPDTR [F55C]	-0.075 ± 0.036
EEPGTYGVALYRFQALEPNELDFEVGDNIRILATLEDGWLEGSLKGRTGIFPYRFVKLCPDTR [K28N]	-0.418 ± 0.086
EEPGTYGVALYRFQALEPNELDFEVGDKIRILATLEDGWLEGSLKGRTGIFPYRFVKLCPDGR [T62G]	0.046 ± 0.049
EEPGNYGVALYRFQALEPNELDFEVGDKIRILATLEDGWLEGSLKGRTGIFPYRFVKLCPDTR [T5N]	-0.3 ± 0.081
EEPGTYGVALYRFQALEHNELDFEVGDKIRILATLEDGWLEGSLKGRTGIFPYRFVKLCPDTR [P18H]	-0.291 ± 0.078
EEPGTYGVALYRFQALEPNELDFEVGDKIRILATLEDGWLEGSLKGRTIIFPYRFVKLCPDTR [G49I]	-0.59 ± 0.12
EEPGTYGVALYRFQALEPNELDFEVGDKIRILATLEDGWLEGSLKGRTGIFPRRFVKLCPDTR [Y53R]	0.211 ± 0.062
EEPGTYGVALYRFQALEPNELDFEVGDKIRILATLEDGWLEGSLKGRTGGFPYRFVKLCPDTR [I50G]	-0.823 ± 0.091
EEPGTYGVALYRFQALEPNELDFEVGDKIRILATLEDGWLEGSLKGRTGIAPYRFVKLCPDTR [F51A]	-0.919 ± 0.14
EEPGTYGVALYRFQALEPNELDFEVGDKIRILATLEFGWLEGSLKGRTGIFPYRFVKLCPDTR [D37F]	-0.56 ± 0.086
EEPGTYGVALYRFCALEPNELDFEVGDKIRILATLEDGWLEGSLKGRTGIFPYRFVKLCPDTR [Q14C]	-0.268 ± 0.067
EEPGTYGVALYRFQALEPNELDFEVGDKIRILATLEDEWLEGSLKGRTGIFPYRFVKLCPDTR [G38E]	-0.633 ± 0.21
EEPGTYGVALYRFQALEPNELDFEVGDKIRILATLEDGWLEGYLKGRTGIFPYRFVKLCPDTR [S43Y]	-0.085 ± 0.055
CEPGTYGVALYRFQALEPNELDFEVGDKIRILATLEDGWLEGSLKGRTGIFPYRFVKLCPDTR [E1C]	-0.189 ± 0.11
EEPGTYGVALYRFQALEPSELDFEVGDKIRILATLEDGWLEGSLKGRTGIFPYRFVKLCPDTR [N19S]	-0.275 ± 0.05
EEPGTYGVALYRFQALEPNELDFEVGDKIRILATLEDGWLEGSLKGRTGIFPYRFVKLWPDTR [C59W]	-0.324 ± 0.11
EEPGTYGVALYRFQALEPNELDFEVGDKIRILATLRDGWLEGSLKGRTGIFPYRFVKLCPDTR [E36R]	-0.331 ± 0.062
EEPGTYGVALYRFQALEPNELDFEVGDKIRILATLEDGWLEGSLKGRTGIFPYRFHKLCPDTR [V56H]	-0.696 ± 0.12

Variant	abundance fitness
EEPFTYGVALYRFQALEPNELDFEVGDKIRILATLEDGWLEGSLKGRTGIFPYRFVKLCPDTR [G4F]	0.009 ± 0.051
EEPGTYGVALYRFQALEPNGLDFEVGDKIRILATLEDGWLEGSLKGRTGIFPYRFVKLCPDTR [E20G]	-0.246 ± 0.057
EEPGTYGVALYRFQALEPNELDFEVGDKIRILATLEDGWLEGSLKGRTGIWPYRFVKLCPDTR [F51W]	-0.59 ± 0.16
EEPGTYGVALYKFQALEPNELDFEVGDKIRILATLEDGWLEGSLKGRTGIFPYRFVKLCPDTR [R12K]	-0.276 ± 0.17
EEPGTYGVALYRFQALEPNELDFEVGDKIRILATLEDGWLEGSLKGRTGIFHYRFVKLCPDTR [P52H]	-0.734 ± 0.13
EEPGTYGVALYRFQALEPNELDFEVGDKIRILATLEDGWLEGSLKGRTGIFPYRFNKLCPDTR [V56N]	-0.711 ± 0.11
EEPGTYGVALYRFQQLEPNELDFEVGDKIRILATLEDGWLEGSLKGRTGIFPYRFVKLCPDTR [A15Q]	-0.787 ± 0.35
EEPGTYGVALYRFQALEPNEQDFEVGDKIRILATLEDGWLEGSLKGRTGIFPYRFVKLCPDTR [L21Q]	-0.455 ± 0.2
EEPGTYGVALYRFQALEPNELDFEVGDPIRILATLEDGWLEGSLKGRTGIFPYRFVKLCPDTR [K28P]	-0.553 ± 0.18
EEPGTYGVALYRFQALEPNELDFFVGDKIRILATLEDGWLEGSLKGRTGIFPYRFVKLCPDTR [E24F]	-0.301 ± 0.067
EEPGTYGVALYRFQALEPNELDFEVGDKIRILATLEDGWLEGSLKGRTGIFPTRFVKLCPDTR [Y53T]	0.223 ± 0.065
EEPGTYGVALYRFQALEPNELDFEVGDKIRILATLEDGWFEGSLKGRTGIFPYRFVKLCPDTR [L40F]	-0.393 ± 0.065
EEPGTYGVALYRFQALEPNELDFEVGDKIRILVTLEDGWLEGSLKGRTGIFPYRFVKLCPDTR [A33V]	-0.445 ± 0.084
EEPGTYGVALYRFQALEPNELDFLVGDKIRILATLEDGWLEGSLKGRTGIFPYRFVKLCPDTR [E24L]	-0.491 ± 0.082
EEPGTYGVALYRFQALEPNELDFEVGDKIRINATLEDGWLEGSLKGRTGIFPYRFVKLCPDTR [L32N]	-0.097 ± 0.055
EEPGTYGVALYRFQALEPNELDFEVGDKIRILATLEDGWLEGSLKGRTGMFPYRFVKLCPDTR [I50M]	-0.298 ± 0.12
EEPGTYGVALYRFQALEPNELDFEVGDKIIILATLEDGWLEGSLKGRTGIFPYRFVKLCPDTR [R30I]	-0.454 ± 0.087
EEPGTYGVALYRFQHLEPNELDFEVGDKIRILATLEDGWLEGSLKGRTGIFPYRFVKLCPDTR [A15H]	-0.472 ± 0.13
EEPGTYFVALYRFQALEPNELDFEVGDKIRILATLEDGWLEGSLKGRTGIFPYRFVKLCPDTR [G7F]	-0.734 ± 0.092
EEPGCYGVALYRFQALEPNELDFEVGDKIRILATLEDGWLEGSLKGRTGIFPYRFVKLCPDTR [T5C]	-0.143 ± 0.059
EEPGTYGVALYRFQALEPNELDFEVGDKIRILATLEDGWLEGSLKGRTGIYPYRFVKLCPDTR [F51Y]	-0.497 ± 0.066
EEPGTYGVALYRFQALEPNELDFEVGDKIRILATLEDGWLEGWLKGRTGIFPYRFVKLCPDTR [S43W]	-0.393 ± 0.27

Variant	abundance fitness
EEPGTYGVALYRFQALEPNELDFEVGDKIRILATLEDGWLETSLKGRTGIFPYRFVKLCPDTR [G42T]	-0.997 ± 0.21
EEPGTIGVALYRFQALEPNELDFEVGDKIRILATLEDGWLEGSLKGRTGIFPYRFVKLCPDTR [Y6I]	-0.123 ± 0.053
EEPGTYGVALYRFQALEPNELDFEVGDKIRILATLIDGWLEGSLKGRTGIFPYRFVKLCPDTR [E36I]	-1.02 ± 0.16
EEPGTYGVALYRFQALEPNELDFEVGDKIRILATLEDGGLEGSLKGRTGIFPYRFVKLCPDTR [W39G]	-0.714 ± 0.092
EEPGTYGVALYRFQAEEPNELDFEVGDKIRILATLEDGWLEGSLKGRTGIFPYRFVKLCPDTR [L16E]	-0.027 ± 0.22
EEPGTYGVALYRFQALEPNELDFEVGDKIRILATLEDGWLEGSLKGRTGIFPYRFVTLCPDTR [K57T]	-0.167 ± 0.058
EEPGTYGVALYRFQALEPNELDFEVGDKIRILATLEDGWLEGSLKGRTGIFPYRFVKLCPDKR [T62K]	-0.267 ± 0.15
EEPGTYGVALYRFQALEPNELDFEVGDKIRILATLEDGWLEGSLKGRTGIFPYRFVKLCPDPR [T62P]	0.079 ± 0.06
EEPGTYGVALYRFQALEPNELDFEVGDKIRILATLEDGWLEGSLKRRTGIFPYRFVKLCPDTR [G46R]	-0.612 ± 0.05
EEPGTYGVALYRFQALEPNELDFEVGDKIRILATLEDGWLEGSLKGRTGIIPYRFVKLCPDTR [F51I]	-0.752 ± 0.1
EEPGTYGVALYRFQALEPNELDFEVGDKIRILATLQDGWLEGSLKGRTGIFPYRFVKLCPDTR [E36Q]	-0.312 ± 0.24
EEPGTYGVALYRFQALEPNELDFEVGDKIRILATLEDGWLEGSLKGRMGIFPYRFVKLCPDTR [T48M]	-0.916 ± 0.27
EEPGTYGVALYRFQALEPNELDFEVGDKIRILATLADGWLEGSLKGRTGIFPYRFVKLCPDTR [E36A]	0.027 ± 0.063
EEPGTYGVALYRFQALEPNELDFEVGDKIRILATLEDGWLEGSLKGRTGIFPYRFVKLCPDTF [R63F]	-0.216 ± 0.089
EEPGTYGVALYRFQALEPNELDFEVGDKIRILATLEDGWLEGSLKHRTGIFPYRFVKLCPDTR [G46H]	-0.73 ± 0.077
EEPGTYGVALYRFQALEPNELDFEVGDKIRILNTLEDGWLEGSLKGRTGIFPYRFVKLCPDTR [A33N]	0.017 ± 0.058
EEPGTYGVALYRFQALEPNELDFEVGDKIRILATLEDGWLEGSLKGRTGIFPYRFAKLCPDTR [V56A]	-0.521 ± 0.094
EEPGTHGVALYRFQALEPNELDFEVGDKIRILATLEDGWLEGSLKGRTGIFPYRFVKLCPDTR [Y6H]	-0.498 ± 0.1
EEPGTYGVVLYRFQALEPNELDFEVGDKIRILATLEDGWLEGSLKGRTGIFPYRFVKLCPDTR [A9V]	-0.853 ± 0.1
EEPGTYGVALYRFQALEPNELDFEVGDKIRILATLEDGWLEGSLKGRTGIFPCRFVKLCPDTR [Y53C]	0.203 ± 0.053
EEPGTYGVALYRFQALEPNELDFEVGDKIRILATLEDGRLEGSLKGRTGIFPYRFVKLCPDTR [W39R]	-0.144 ± 0.058
REPGTYGVALYRFQALEPNELDFEVGDKIRILATLEDGWLEGSLKGRTGIFPYRFVKLCPDTR [E1R]	-0.063 ± 0.12

Variant	abundance fitness
EEPGTYGVALYRFQACEPNELDFEVGDKIRILATLEDGWLEGSLKGRTGIFPYRFVKLCPDTR [L16C]	0.09 ± 0.054
EEPGTYGVALYRFQALEPNILDFEVGDKIRILATLEDGWLEGSLKGRTGIFPYRFVKLCPDTR [E20I]	-0.65 ± 0.095
EEPGTYGVALYRFQALEPNELDFEVGDKIRILATLEDGWLPGSLKGRTGIFPYRFVKLCPDTR [E41P]	-0.669 ± 0.16
EEPGTYGVALYRFQALEPNECDFEVGDKIRILATLEDGWLEGSLKGRTGIFPYRFVKLCPDTR [L21C]	-0.851 ± 0.1
EEPGTYGVALYRFQALEPNELNFEVGDKIRILATLEDGWLEGSLKGRTGIFPYRFVKLCPDTR [D22N]	-0.04 ± 0.052
EEPGTYGVALYRFQALEPNELDFEVGDKDRILATLEDGWLEGSLKGRTGIFPYRFVKLCPDTR [I29D]	-0.685 ± 0.1
EEPGTYGVALYPFQALEPNELDFEVGDKIRILATLEDGWLEGSLKGRTGIFPYRFVKLCPDTR [R12P]	-0.126 ± 0.1
EEPGTYGHALYRFQALEPNELDFEVGDKIRILATLEDGWLEGSLKGRTGIFPYRFVKLCPDTR [V8H]	-0.321 ± 0.11
EEPGTYGVALYRFQALEPNELDFEVGDKIRILATLEDIWLEGSLKGRTGIFPYRFVKLCPDTR [G38I]	-0.769 ± 0.1
EEPGTYGVALYRNQALEPNELDFEVGDKIRILATLEDGWLEGSLKGRTGIFPYRFVKLCPDTR [F13N]	-0.023 ± 0.057
EEPGTYGVALYRFQALEPNELDFEVGDKIRILATLEDGWLEGSLKGRTGIFPYRFVKLCPQTR [D61Q]	-0.178 ± 0.14
EEPGTYGVALYRFQALEPNELDFEVGDKICILATLEDGWLEGSLKGRTGIFPYRFVKLCPDTR [R30C]	-0.367 ± 0.076
EEPGTYGVALYRFQALEPNELDFEVGDKIRILATLEDGWLEGSLKGRTGIFVYRFVKLCPDTR [P52V]	-0.816 ± 0.095
EEPGTYGVALYRFQALEPNELDFEVMDKIRILATLEDGWLEGSLKGRTGIFPYRFVKLCPDTR [G26M]	-1.02 ± 0.26
EEPGTYGVALYRFQALEPNELPFEVGDKIRILATLEDGWLEGSLKGRTGIFPYRFVKLCPDTR [D22P]	0.157 ± 0.074
EEPGTYGVALYRFQALEPNELDFEVGDKIRILPTLEDGWLEGSLKGRTGIFPYRFVKLCPDTR [A33P]	-0.429 ± 0.24
EEPGTYGVALYRFQALEPNELDFEVGDKIRILATLEDTWLEGSLKGRTGIFPYRFVKLCPDTR [G38T]	-0.983 ± 0.17
EEPGTYGVALYRFQALEPNELDFEVGDKIRILATLEDGWLEGSTKGRTGIFPYRFVKLCPDTR [L44T]	-0.416 ± 0.14
EAPGTYGVALYRFQALEPNELDFEVGDKIRILATLEDGWLEGSLKGRTGIFPYRFVKLCPDTR [E2A]	-0.586 ± 0.099
